Data on four molecules can be found in article doi:10.1101/2023.12.14.571638, “Structural basis of a regulatory switch in mammalian complex I” (bioRxiv, 2023).

The assay deals with T1, ND1 (Bos taurus (bovine), UniProt P03887 1-318).
T1 construct: ND1, core membrane subunit of respiratory complex I (NADH:ubiquinone oxidoreductase), Bos taurus; endogenous subunit of the purified enzyme; also called subunit ND1
In words: cryo-EM structure; bovine complex I purified in LMNG, reconstituted into proteoliposomes (DOPC:DOPE:cardiolipin 8:1:1, ubiquinone-10; 10 mM MOPS-KOH pH 7.5, 50 mM KCl), on graphene oxide grids; closed, open1 and open2 states, outward- and inward-facing; best map CI-out-closed 2.5 Å. As to conditions: both partners purified.

T1 sequence (P03887 whole entry): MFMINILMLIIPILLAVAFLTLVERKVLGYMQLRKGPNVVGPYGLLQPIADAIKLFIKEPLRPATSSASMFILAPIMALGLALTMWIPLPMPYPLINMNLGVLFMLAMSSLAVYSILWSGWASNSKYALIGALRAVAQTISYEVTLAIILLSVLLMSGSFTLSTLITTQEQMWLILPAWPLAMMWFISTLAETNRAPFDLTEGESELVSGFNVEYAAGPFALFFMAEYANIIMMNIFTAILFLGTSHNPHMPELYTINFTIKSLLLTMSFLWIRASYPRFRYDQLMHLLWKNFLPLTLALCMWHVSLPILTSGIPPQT

B1: NDUFA13 (natural protein, Bos taurus (bovine), UniProt Q95KV7 1-144, looked up)
chain: MAASKVKQDMPPVGGYGPIDYKRNLPRRGLSGYSMFAVGIGALLFGYWSMMKWNRERRRLQIEDFEARIALMPLLQAEKDRRVLQMLRENLEEEATVMKDVPGWKVGESVFHTTRWVTPMMGELYGLRASEEVLSATYGFIWYT
notes: NDUFA13, supernumerary subunit of respiratory complex I, Bos taurus
On to B1, for which the binding result is listed as “binds”.

B2: ND6 (natural protein, Bos taurus (bovine), UniProt P03924 1-175, looked up)
chain: MMLYIVFILSVIFVMGFVGFSSKPSPIYGGLGLIVSGGVGCGIVLNFGGSFLGLMVFLIYLGGMMVVFGYTTAMATEQYPEIWLSNKAVLGAFVTGLLMEFFMVYYVLKDKEVEVVFEFNGLGDWVIYDTGDSGFFSEEAMGIAALYSYGTWLVIVTGWSLLIGVVVIMEITRGN
notes: ND6, core membrane subunit of respiratory complex I, Bos taurus; endogenous subunit of the purified enzyme
Turning to B2, the binding result was “binds”.

B3: NDUFA1 (natural protein, Bos taurus (bovine), UniProt Q02377 1-70, looked up)
chain: MWFEVLPGIAVMGVCLFIPGMATARIHRFSNGGKEKRVAHYPYQWYLMERDRRVSGVNRSYVSKGLENID
notes: NDUFA1, supernumerary subunit of respiratory complex I, Bos taurus; endogenous subunit of the purified enzyme
For B3, the binding result is “binds”.

B4: NDUFA8 (natural protein, Bos taurus (bovine), UniProt P42029 1-172, looked up)
chain: MPGIVELPSLEDLKVQEVKVSSSVLKAAAHHYGAQCDKPNKEFMLCRWEEKDPRRCLEEGKLVNQCALEFFRQIKRHCAEPFTEYWTCIDYSGLQLFRRCRKQQAQFDECVLDKLGWVRPDLGDLSKVTKVKTDRPLPENPYHSRARPEPNPEVEGDLKPARHGSRLFFWTM
notes: NDUFA8, supernumerary subunit of respiratory complex I, Bos taurus; endogenous subunit of the purified enzyme
B4: the binding result was “binds”.
